Experiment [1] deals with T1, human CXCR4 (C-X-C chemokine receptor 4) (human, UniProt P61073 1-352).
T1 construct: also called CD184; LESTR
As to the kind of experiment: flow cytometry on CEM cells (native human CXCR4), FITC anti-human IgG secondary. On the procedure:
The antibodies were then mixed with CEM cells and allowed to bind before being detected with a FITC-conjugated anti-human IgG secondary antibody. The cells were then analyzed by fluorescence cytometry.
(In general: Flow cytometry measures light scatter and fluorescence of single cells or particles in a stream.)

Experiment [2] deals with T1, human CXCR4 (C-X-C chemokine receptor 4). As to the kind of experiment: displacement of 100 pM ^125I-CXCL12 from CEM cells. On the procedure:
The anti-CXCR4 antibodies were serially diluted 1:3 to yield a range of concentrations from 300 nM to 137 pM. […] An irrelevant antibody of the same isotype was used as a negative control.

For experiment [3] the target is unchanged. As to the kind of experiment: cell-based or functional assay.

We go through two molecules from US20200231683A1 (Bristol-Myers Squibb, published 2020).

Broadly, the EC50 is the concentration giving half of the maximal effect. Lower therefore signals an effect from little substance.

T1 sequence (P61073 whole entry): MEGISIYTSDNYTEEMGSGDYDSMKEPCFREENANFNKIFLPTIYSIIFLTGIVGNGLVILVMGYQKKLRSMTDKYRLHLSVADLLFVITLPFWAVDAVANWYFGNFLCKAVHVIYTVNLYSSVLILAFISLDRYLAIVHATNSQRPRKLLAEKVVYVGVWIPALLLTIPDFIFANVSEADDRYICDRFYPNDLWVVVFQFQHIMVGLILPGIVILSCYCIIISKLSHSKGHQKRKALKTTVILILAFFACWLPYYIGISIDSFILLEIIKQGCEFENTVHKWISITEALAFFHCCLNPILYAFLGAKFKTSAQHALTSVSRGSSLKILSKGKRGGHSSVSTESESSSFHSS

B1: D1 human anti-CXCR4 monoclonal antibody (antibody, V domains shown)
VH: EVQLVQSGGGLVQPGGSLRLSCAAAGFTFSSYSMNWVRQAPGKGLEWVSYISSRSKTIYYADSVKGRFTISRDNARNSLYLQMNSLRDEDTAVYYCARDYGGQPPYYYYYGMDVWGQGTTVTVSS
VL: VIWVTQSPSSLSASVGDRVTITCRTSQGISSWLAWYQQKPEKAPELLIYAASSLQSGVPSRFSGSGSGTDFTLTISSLQPEDFATYYCQQYNSYPRTFGQGTKVEIK
For B1, the EC50 in experiment [1] was 80 nM; in experiment [2], 28.6 nM. In experiment [3], the “EC50 for inhibition of CXCL12-induced calcium flux in CEM cells” value turned out to be 0.57 nM.

B2: E2 human anti-CXCR4 monoclonal antibody (antibody, V domains shown)
VH: EVQLVQSGGGLVQPGGSLRLSCAAAGFTFSSYSMNWVRQAPGKGLEWVSYISSRSRTIYYADSVKGRFTISRDNAKNSLYLQMNSLRDEDTAVYYCARDYGGQPPYHYYYGMDVWGQGTTVTVSS
VL: EIVLTQSPSSLSASVGDRVTITCRASQGISNWLAWYQQKPEKAPKSLIYAASSLQSGVPSRFSGSGSGTDFTLTISSLQPEDFATYYCQQYNSYPRTFGQGTKVEIK
Take B2: the EC50 in experiment [1] amounted to 290 nM.
